Results reported in the RNAGym collection of RNA variant scans (doi:10.7554/elife.80360).

B1: CPEB3 Ribozyme (parent)
chain: GGGGGCCACAGCAGAAGCGUUCACGUCGCGGCCCCUGUCAGAUUCUGGUGAAUCUGCGAAUUCUGCUGU

Variants of: B1
Assay: self-cleavage, relative activity (ratio to wild type); higher = more cleavage; co-transcriptional

Q: Which self-cleavage does the source give for GGGGGCCACAGCACAAGCGUUCACGUCGCGGCCCCUGUCAGAUUCUGGGGAAUCUGCGAAUUCUGCUGU [G14C U49G] here?
A: 0.689

Q: Which self-cleavage does the source give for GGGGGCCACAGCACAAGCGUUCACGUCGCGGCCCCUGUCAGAUUCUGGAGAAUCUGCGAAUUCUGCUGU [G14C U49A] here?
A: 0.712

Q: For GGGGGCCACAGCACAAGCGUUCACGUCGCGGCCCCUGUCAGAGUCUGGUGAAUCUGCGAAUUCUGCUGU [G14C U43G], which self-cleavage is on record?
A: 0.246

Q: With GGGGGCCACAGCACAAGCGUUCACGUCGUGGCCCCUGUCAGAUUCUGGUGAAUCUGCGAAUUCUGCUGU [G14C C29U] as the variant, how does the self-cleavage read?
A: 0.163

Q: For GGGGGCCACAGCACAAGCGUUCACGUCGGGGCCCCUGUCAGAUUCUGGUGAAUCUGCGAAUUCUGCUGU [G14C C29G], which self-cleavage is on record?
A: 0.172

Q: Which self-cleavage does the source give for GGGGGCCACAGCACAAGCGUUCACGUCGCGGACCCUGUCAGAUUCUGGUGAAUCUGCGAAUUCUGCUGU [G14C C32A] here?
A: 0.25

Q: Which self-cleavage does the source give for GGGGGCCACAGCACAAGCGUUCACGUCGCGGGCCCUGUCAGAUUCUGGUGAAUCUGCGAAUUCUGCUGU [G14C C32G] here?
A: 0.193

Q: For GGGGGCCACAGCACAAGCGUUCACGUCGCGGCCCCUGUGAGAUUCUGGUGAAUCUGCGAAUUCUGCUGU [G14C C39G], which self-cleavage is on record?
A: 0.248

Q: Which self-cleavage does the source give for GGGGGCCACAGCACAAGCGUUCACGUCGCGGCCCCUGUAAGAUUCUGGUGAAUCUGCGAAUUCUGCUGU [G14C C39A] here?
A: 0.225

Q: Which self-cleavage does the source give for GGGGGCCACAGCACAAGCGUUCACGUCGCGGCCCCUGUUAGAUUCUGGUGAAUCUGCGAAUUCUGCUGU [G14C C39U] here?
A: 0.286

Q: Which self-cleavage does the source give for GGGGGCCACAGCACAAGCGCUCACGUCGCGGCCCCUGUCAGAUUCUGGUGAAUCUGCGAAUUCUGCUGU [G14C U20C] here?
A: 0.116

Q: For GGGGGCCACAGCACAAGCGAUCACGUCGCGGCCCCUGUCAGAUUCUGGUGAAUCUGCGAAUUCUGCUGU [G14C U20A], which self-cleavage is on record?
A: 0.102

Q: Which self-cleavage does the source give for GGGGGCCACAGCACAAGCGUUCACGUCGCGCCCCCUGUCAGAUUCUGGUGAAUCUGCGAAUUCUGCUGU [G14C G31C] here?
A: 0.167

Q: For GGGGGCCACAGCACAAGCGUUCACGUCGCGUCCCCUGUCAGAUUCUGGUGAAUCUGCGAAUUCUGCUGU [G14C G31U], which self-cleavage is on record?
A: 0.179

Q: Which self-cleavage does the source give for GGGGGCCACAGCACAAGCGUUCACGUCGCGACCCCUGUCAGAUUCUGGUGAAUCUGCGAAUUCUGCUGU [G14C G31A] here?
A: 0.228

Q: Which self-cleavage does the source give for GGGGGCCACAGCACAAGCGUUCACGUCGCGGCCCCUGUCAGAUUCUGGUGAAUCUGCGAAUUCUGUUGU [G14C C66U] here?
A: 0.358

Q: With GGGGGCCACAGCACAAGCGUUCACGUCGCGGCCCCUGUCAGAUUCUGGUGAAUCUGCGAAUUCUGAUGU [G14C C66A] as the variant, how does the self-cleavage read?
A: 0.244

Q: Which self-cleavage does the source give for GGGGGCCACAGCACAAGCGUUCACGUCGCGGCCCCUGUCAGAUUCUGCUGAAUCUGCGAAUUCUGCUGU [G14C G48C] here?
A: 0.677

Q: For GGGGGCCACAGCACAAGCGUUCACGUCGCGGCCCCUGUCAGAUUCUGAUGAAUCUGCGAAUUCUGCUGU [G14C G48A], which self-cleavage is on record?
A: 0.703

Q: For GGGGGCCACAGCACAAGCGUUCACGUCGCGGCCACUGUCAGAUUCUGGUGAAUCUGCGAAUUCUGCUGU [G14C C34A], which self-cleavage is on record?
A: 0.406

Q: With GGGGGCCACAGCACAAGCGUUCACGUCGCGGCCGCUGUCAGAUUCUGGUGAAUCUGCGAAUUCUGCUGU [G14C C34G] as the variant, how does the self-cleavage read?
A: 0.236

Q: With GGGGGCCACAGCACAAGCGUUCACGUCGCGGCCCCUGUCAGAUUCUGGUGAAUCUGUGAAUUCUGCUGU [G14C C57U] as the variant, how does the self-cleavage read?
A: 0.28

Q: For GGGGGCCACAGCACAAGCGUUCACGUCGCGGCCCCUGUCAGAUUCUGGUGAAUCUGAGAAUUCUGCUGU [G14C C57A], which self-cleavage is on record?
A: 0.325

Q: With GGGGGCCACAGCACAAGCGUUCACGUCGCGGCCCCUGUCAGAUUCUGGUGAAUCUGCAAAUUCUGCUGU [G14C G58A] as the variant, how does the self-cleavage read?
A: 0.505

Q: Which self-cleavage does the source give for GGGGGCCACAGCACAAGCGUUCACGUCGCGGCUCCUGUCAGAUUCUGGUGAAUCUGCGAAUUCUGCUGU [G14C C33U] here?
A: 0.636

Q: Which self-cleavage does the source give for GGGGGCCACAGCACAAGCGUUCACGUCGCGGCACCUGUCAGAUUCUGGUGAAUCUGCGAAUUCUGCUGU [G14C C33A] here?
A: 0.413

Q: Which self-cleavage does the source give for GGGGGCCACAGCACAAGCGUUCACGUCGCGGCGCCUGUCAGAUUCUGGUGAAUCUGCGAAUUCUGCUGU [G14C C33G] here?
A: 0.293

Q: Which self-cleavage does the source give for GGGGGCCACAGCACAAGCGUUCACGUCACGGCCCCUGUCAGAUUCUGGUGAAUCUGCGAAUUCUGCUGU [G14C G28A] here?
A: 0.154

Q: With GGGGGCCACAGCACAAGCGUUCACGUCCCGGCCCCUGUCAGAUUCUGGUGAAUCUGCGAAUUCUGCUGU [G14C G28C] as the variant, how does the self-cleavage read?
A: 0.154

Q: For GGGGGCCACAGCACAAGCGUUCACGUCUCGGCCCCUGUCAGAUUCUGGUGAAUCUGCGAAUUCUGCUGU [G14C G28U], which self-cleavage is on record?
A: 0.148

Q: With GGGGGCCACAGCACAAGCGUUCACGGCGCGGCCCCUGUCAGAUUCUGGUGAAUCUGCGAAUUCUGCUGU [G14C U26G] as the variant, how does the self-cleavage read?
A: 0.256

Q: For GGGGGCCACAGCACAAGCGUUCACGCCGCGGCCCCUGUCAGAUUCUGGUGAAUCUGCGAAUUCUGCUGU [G14C U26C], which self-cleavage is on record?
A: 0.327

Q: With GGGGGCCACAGCACAAGCGUUCACGUCGCGGCCCCUGUCAGAUUCUGGUGAAUCUGCGAAUUUUGCUGU [G14C C63U] as the variant, how does the self-cleavage read?
A: 0.862

Q: Which self-cleavage does the source give for GGGGGCCACAGCACAAGCGUUCACGUCGCGGCCCCUGUCAGAUUCUGGUGAAUCUGCGAAUUAUGCUGU [G14C C63A] here?
A: 0.928

Q: Which self-cleavage does the source give for GGGGGCCACAGCACAAGCGUUCACGUCGCAGCCCCUGUCAGAUUCUGGUGAAUCUGCGAAUUCUGCUGU [G14C G30A] here?
A: 0.255

Q: With GGGGGCCACAGCACAAGCGUUCACGUCGCGGCCCUUGUCAGAUUCUGGUGAAUCUGCGAAUUCUGCUGU [G14C C35U] as the variant, how does the self-cleavage read?
A: 0.464

Q: With GGGGGCCACAGCACAAGCGUUCACGUCGCGGCCCGUGUCAGAUUCUGGUGAAUCUGCGAAUUCUGCUGU [G14C C35G] as the variant, how does the self-cleavage read?
A: 0.191

Q: Which self-cleavage does the source give for GGGGGCCACAGCACAAGCGUUCACGUCGCGGCCCCUGUCAGAUUCUGGUGAAUCUGCGAAUUCUGCUAU [G14C G68A] here?
A: 0.704

Q: With GGGGGCCACAGCACAAGCGUUCACGUCGCGGCCCCUGUCAGAUUCUGGUGAAUCUGCGAAUUCUGCUCU [G14C G68C] as the variant, how does the self-cleavage read?
A: 0.607
